Results from PMC11033462.

How the values were obtained:
[1] = biological target: PLAA p.Ile609Thr, Myc-tagged (human) (UniProt Q9Y263); test: co-IP; Myc-PLAA overexpressed in HEK293T, captured from cleared lysate on Myc-beads (4°C, 2 h), eluate probed by western blot (anti-VCP, anti-SAKS1, anti-MYC); p97 band divided by the Myc-PLAA band
[2] = biological target: PLAA p.Leu795Met, Myc-tagged (human) (UniProt Q9Y263); test: as above
[3] = biological target: PLAA p.Ile609Thr, Myc-tagged (human) (UniProt Q9Y263); test: affinity purification with mass spectrometry; Myc-PLAA overexpressed in HEK293T, captured from cleared lysate on Myc-beads (20 mM HEPES pH 7.5, 100 mM NaCl, 0.2% n-dodecyl-β-D-maltoside, 4°C, 2 h), eluted with 10 M urea, LC-MS/MS; cut off 5-fold enrichment over untransfected controls; protein abundance as a ratio to PLAA
[4] = biological target: PLAA p.Leu795Met, Myc-tagged (human) (UniProt Q9Y263); test: as above

VCP/p97 (from UniProt P55072 1-806) (natural protein)
percent decrease of p97 in the IP (ratio to PLAA) against WT PLAA [1]: 80%
percent decrease of p97 in the IP (ratio to PLAA) against WT PLAA [2]: 50%
percent decrease of p97 in the IP (ratio to PLAA) against WT PLAA [3]: 50%
percent decrease of p97 in the IP (ratio to PLAA) against WT PLAA [4]: 20%
